According to article PMC6019534:

Biological target: MbnN from Methylosinus trichosporium OB3b, tagless (C-terminal His6 tag removed by TEV protease) (Methylosinus trichosporium OB3b)
Experiment: native gel or EMSA

**Q.** “MbnN from Methylosinus trichosporium OB3b, tagless (C-terminal His6 tag removed by TEV protease) (enzyme)” was tested. Which stoichiometry N did it give?
**A.** 2
